Experimental data taken from US20150344570A1 (published 2015).

T1: FcγRIIb extracellular domain with C-terminal His tag (human, UniProt P31994 43-217)
T1 construct: extracellular domain; Soluble receptor expressed in FreeStyle293 cells and used as analyte in Biacore; also called FcgRIIb; 2b; not shown: His tag attached to the C terminus
T1 sequence (looked up): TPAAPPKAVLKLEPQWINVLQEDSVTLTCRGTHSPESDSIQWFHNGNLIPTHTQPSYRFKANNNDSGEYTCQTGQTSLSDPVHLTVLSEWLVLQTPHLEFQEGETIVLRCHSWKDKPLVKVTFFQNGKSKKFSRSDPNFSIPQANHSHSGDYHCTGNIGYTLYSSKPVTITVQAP


Key:
[1] = molecular target: T2, FcγRIIIa extracellular domain with C-terminal His tag (human, UniProt P08637 17-208); assay: SPR (Biacore); He/Con_3a divided by He/Con_2b (FcγRIIIa over FcγRIIb)
T2 construct: extracellular domain; also called FcgRIIIa; 3a; not shown: His tag attached to the C terminus
T2 sequence (P08637 17-208): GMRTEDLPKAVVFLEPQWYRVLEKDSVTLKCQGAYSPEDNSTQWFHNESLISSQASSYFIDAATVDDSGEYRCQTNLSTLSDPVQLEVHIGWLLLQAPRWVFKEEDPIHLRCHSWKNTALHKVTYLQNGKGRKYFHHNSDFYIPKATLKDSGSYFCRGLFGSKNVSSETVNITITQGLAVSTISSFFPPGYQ
Method: (§1) The heterodimerized antibodies He Abs in which one of the H chains was introduced with an alteration were assayed for their binding activities to each activating FcγR and inhibitory FcγR according to the method described in Example 4. […] The activating FcγRs in FIGS. 26, 27, 28, and 29 are FcγRIa, FcγRIIa (R), FcγRIIa (H), and FcγRIIIa, respectively.
(§2) Analysis of interaction between objective antibody and the FcγR was carried out using Biacore T100 (GE Healthcare). HBS-EP+ (GE Healthcare) was used as the running buffer, and the measurement temperature was set to 25° C. Chips produced by immobilizing the antigen peptide by the amine coupling method to a Series S Sencor Chip CM5 (GE Healthcare), or alternatively, chips produced by allowing preliminarily biotinylated antigen peptides to interact with and immobilize onto a Series S Sensor Chip SA (certified) (GE Healthcare) were used. Antibodies of interest were captured onto an antigen peptide-immobilized chip, and allowed to interact to each FcγR diluted with running buffer. To regenerate and repeatedly use the chip, the antibodies captured on the chip were washed off by reacting 10 mM glycine-HCl, pH 1.5.

[2] = molecular target: T1, FcγRIIb extracellular domain with …; assay: SPR (Biacore), antibody captured, FcγR as analyte; binding activity relative to control heterodimerized antibody
Method: as §1, §2

[3] = molecular target: T2, FcγRIIIa extracellular domain with …; assay: as above
Method: as §1, §2

Binder	He_3a/2b [1] [ratio]	He/Con_2b [2]	He/Con_3a [3]
GpH7-A5/GpH7-B3 variant D270_08L/GpL16-k0 (antibody, human IgG1, kappa, Heterodimerized anti-glypican-3 IgG1 with the alteration in only one H chain; also called He Ab) heavy 1: not shown heavy 2: not shown light: DIVMTQSPLSLPVTPGEPASISCQASESLVHSNRNTYLHWYLQKPGQSPQLLIYKVSNRFSGVPDRFSGSGSGTDFTLKISRVEAEDVGVYYCSQNTHVPPTFGQGTKVEIERTVAAPSVFIFPPSDEQLKSGTASVVCLLNNFYPREAKVQWKVDNALQSGNSQESVTEQDSKDSTYSLSSTLTLSKADYEKHKVYACEVTHQGLSSPVTKSFNRGEC	1.34	53.6 % of GpH7-A5/GpH7-B3/GpL16-k0 (=100)	71.8 % of GpH7-A5/GpH7-B3/GpL16-k0 (=100)
GpH7-A5/GpH7-B3 variant D270_15Y/GpL16-k0 (antibody, human IgG1, kappa, Heterodimerized anti-glypican-3 IgG1 with the alteration in only one H chain; also called He Ab) heavy 1: not shown heavy 2: not shown light: DIVMTQSPLSLPVTPGEPASISCQASESLVHSNRNTYLHWYLQKPGQSPQLLIYKVSNRFSGVPDRFSGSGSGTDFTLKISRVEAEDVGVYYCSQNTHVPPTFGQGTKVEIERTVAAPSVFIFPPSDEQLKSGTASVVCLLNNFYPREAKVQWKVDNALQSGNSQESVTEQDSKDSTYSLSSTLTLSKADYEKHKVYACEVTHQGLSSPVTKSFNRGEC	1.22	44.9 % of GpH7-A5/GpH7-B3/GpL16-k0 (=100)	54.5 % of GpH7-A5/GpH7-B3/GpL16-k0 (=100)
GpH7-A5/GpH7-B3 variant E269_06M/GpL16-k0 (antibody, human IgG1, kappa, Heterodimerized anti-glypican-3 IgG1 with the alteration in only one H chain; also called He Ab) heavy 1: not shown heavy 2: not shown light: DIVMTQSPLSLPVTPGEPASISCQASESLVHSNRNTYLHWYLQKPGQSPQLLIYKVSNRFSGVPDRFSGSGSGTDFTLKISRVEAEDVGVYYCSQNTHVPPTFGQGTKVEIERTVAAPSVFIFPPSDEQLKSGTASVVCLLNNFYPREAKVQWKVDNALQSGNSQESVTEQDSKDSTYSLSSTLTLSKADYEKHKVYACEVTHQGLSSPVTKSFNRGEC	1.25	46.7 % of GpH7-A5/GpH7-B3/GpL16-k0 (=100)	58.5 % of GpH7-A5/GpH7-B3/GpL16-k0 (=100)
GpH7-A5/GpH7-B3 variant D270_12R/GpL16-k0 (antibody, human IgG1, kappa, Heterodimerized anti-glypican-3 IgG1 with the alteration in only one H chain; also called He Ab) heavy 1: not shown heavy 2: not shown light: DIVMTQSPLSLPVTPGEPASISCQASESLVHSNRNTYLHWYLQKPGQSPQLLIYKVSNRFSGVPDRFSGSGSGTDFTLKISRVEAEDVGVYYCSQNTHVPPTFGQGTKVEIERTVAAPSVFIFPPSDEQLKSGTASVVCLLNNFYPREAKVQWKVDNALQSGNSQESVTEQDSKDSTYSLSSTLTLSKADYEKHKVYACEVTHQGLSSPVTKSFNRGEC	1.58	18.3 % of GpH7-A5/GpH7-B3/GpL16-k0 (=100)	28.8 % of GpH7-A5/GpH7-B3/GpL16-k0 (=100)
GpH7-A5/GpH7-B3 variant E269_07I/GpL16-k0 (antibody, human IgG1, kappa, Heterodimerized anti-glypican-3 IgG1 with the alteration in only one H chain; also called He Ab) heavy 1: not shown heavy 2: not shown light: DIVMTQSPLSLPVTPGEPASISCQASESLVHSNRNTYLHWYLQKPGQSPQLLIYKVSNRFSGVPDRFSGSGSGTDFTLKISRVEAEDVGVYYCSQNTHVPPTFGQGTKVEIERTVAAPSVFIFPPSDEQLKSGTASVVCLLNNFYPREAKVQWKVDNALQSGNSQESVTEQDSKDSTYSLSSTLTLSKADYEKHKVYACEVTHQGLSSPVTKSFNRGEC	1.27	43.9 % of GpH7-A5/GpH7-B3/GpL16-k0 (=100)	55.8 % of GpH7-A5/GpH7-B3/GpL16-k0 (=100)
GpH7-A5/GpH7-B3 variant E269_03V/GpL16-k0 (antibody, human IgG1, kappa, Heterodimerized anti-glypican-3 IgG1 with the alteration in only one H chain; also called He Ab) heavy 1: not shown heavy 2: not shown light: DIVMTQSPLSLPVTPGEPASISCQASESLVHSNRNTYLHWYLQKPGQSPQLLIYKVSNRFSGVPDRFSGSGSGTDFTLKISRVEAEDVGVYYCSQNTHVPPTFGQGTKVEIERTVAAPSVFIFPPSDEQLKSGTASVVCLLNNFYPREAKVQWKVDNALQSGNSQESVTEQDSKDSTYSLSSTLTLSKADYEKHKVYACEVTHQGLSSPVTKSFNRGEC	1.25	45.1 % of GpH7-A5/GpH7-B3/GpL16-k0 (=100)	56.6 % of GpH7-A5/GpH7-B3/GpL16-k0 (=100)

Now from value to binder:

He_3a/2b [1] [ratio]	He/Con_2b [2]	He/Con_3a [3]	Binder
2.47	17.8 % of GpH7-A5/GpH7-B3/GpL16-k0 (=100)	44 % of GpH7-A5/GpH7-B3/GpL16-k0 (=100)	GpH7-A5/GpH7-B3 variant E269_11K/GpL16-k0 (antibody, human IgG1, kappa, Heterodimerized anti-glypican-3 IgG1 with the alteration in only one H chain; also called He Ab) heavy 1: not shown heavy 2: not shown light: DIVMTQSPLSLPVTPGEPASISCQASESLVHSNRNTYLHWYLQKPGQSPQLLIYKVSNRFSGVPDRFSGSGSGTDFTLKISRVEAEDVGVYYCSQNTHVPPTFGQGTKVEIERTVAAPSVFIFPPSDEQLKSGTASVVCLLNNFYPREAKVQWKVDNALQSGNSQESVTEQDSKDSTYSLSSTLTLSKADYEKHKVYACEVTHQGLSSPVTKSFNRGEC
1.4	40.3 % of GpH7-A5/GpH7-B3/GpL16-k0 (=100)	56.5 % of GpH7-A5/GpH7-B3/GpL16-k0 (=100)	GpH7-A5/GpH7-B3 variant D270_18N/GpL16-k0 (antibody, human IgG1, kappa, Heterodimerized anti-glypican-3 IgG1 with the alteration in only one H chain; also called He Ab) heavy 1: not shown heavy 2: not shown light: DIVMTQSPLSLPVTPGEPASISCQASESLVHSNRNTYLHWYLQKPGQSPQLLIYKVSNRFSGVPDRFSGSGSGTDFTLKISRVEAEDVGVYYCSQNTHVPPTFGQGTKVEIERTVAAPSVFIFPPSDEQLKSGTASVVCLLNNFYPREAKVQWKVDNALQSGNSQESVTEQDSKDSTYSLSSTLTLSKADYEKHKVYACEVTHQGLSSPVTKSFNRGEC
1.52	39.5 % of GpH7-A5/GpH7-B3/GpL16-k0 (=100)	60.3 % of GpH7-A5/GpH7-B3/GpL16-k0 (=100)	GpH7-A5/GpH7-B3 variant D270_03V/GpL16-k0 (antibody, human IgG1, kappa, Heterodimerized anti-glypican-3 IgG1 with the alteration in only one H chain; also called He Ab) heavy 1: not shown heavy 2: not shown light: DIVMTQSPLSLPVTPGEPASISCQASESLVHSNRNTYLHWYLQKPGQSPQLLIYKVSNRFSGVPDRFSGSGSGTDFTLKISRVEAEDVGVYYCSQNTHVPPTFGQGTKVEIERTVAAPSVFIFPPSDEQLKSGTASVVCLLNNFYPREAKVQWKVDNALQSGNSQESVTEQDSKDSTYSLSSTLTLSKADYEKHKVYACEVTHQGLSSPVTKSFNRGEC
